By Kd is commonly meant the constant that tells how readily two partners part at equilibrium.

Assay in all cases: filter binding
One data set has as its target T1, PABPN1 (His-PABPN1) (bovine, UniProt Q28165 1-306).
T1 sequence: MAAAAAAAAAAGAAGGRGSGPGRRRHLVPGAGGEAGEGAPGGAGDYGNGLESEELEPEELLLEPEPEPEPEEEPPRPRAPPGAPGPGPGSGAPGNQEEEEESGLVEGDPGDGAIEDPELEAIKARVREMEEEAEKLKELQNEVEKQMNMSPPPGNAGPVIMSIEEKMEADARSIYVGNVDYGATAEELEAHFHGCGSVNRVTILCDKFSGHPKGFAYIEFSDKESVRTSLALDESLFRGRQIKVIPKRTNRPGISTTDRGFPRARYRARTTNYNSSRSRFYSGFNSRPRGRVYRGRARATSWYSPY

For data set [1], the target named is T2, Pab2 (nuclear poly(A) binding protein) (Schizosaccharomyces pombe, UniProt O14327 1-166).
T2 sequence: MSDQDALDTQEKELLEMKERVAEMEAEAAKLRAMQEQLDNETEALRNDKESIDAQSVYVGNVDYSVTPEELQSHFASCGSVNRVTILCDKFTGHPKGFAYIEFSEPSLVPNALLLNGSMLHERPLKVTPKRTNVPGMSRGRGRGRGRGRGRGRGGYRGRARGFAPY

The target in data set [2] is T2, Pab2 (nuclear poly(A) binding protein). This is another data set of the same source.

B1: A100 (ssRNA)
RNA: AAAAAAAAAAAAAAAAAAAAAAAAAAAAAAAAAAAAAAAAAAAAAAAAAAAAAAAAAAAAAAAAAAAAAAAAAAAAAAAAAAAAAAAAAAAAAAAAAAAA
Consider B1, for which the binding result (with PABPN1 (His-PABPN1); in data set [1]) was “binds” throughout.

Regarding AAAAAAAAAAAAAA (ssRNA) [A14], the dissociation constant Kd in data set [2] is 5.3 ± 1.1 nM.

The values are drawn from publication PMC5340911.
